Measured values: article PMC1543650

Key:
[1] = target: Fc-DC-SIGN (entire ectodomain of DC-SIGN fused in-frame with the Fc region of IgG1) (UniProt Q9NNX6); assay: ELISA
[2] = target: Fc-gp120 WT (human IgG1 Fc fused N-terminal to full-length wild-type gp120 of HIV-1 JR-CSF) (HIV-1 JR-CSF); assay: flow cytometry on cells
[3] = target: Fc-gp120 ΔV1V2 (HIV-1 JR-CSF); assay: flow cytometry on cells
[4] = target: Fc-gp120 ΔV1V2V3 (HIV-1 JR-CSF); assay: flow cytometry on cells
[5] = target: Fc-gp120 ΔV3 (HIV-1 JR-CSF); assay: flow cytometry on cells

UniProt Q9NNX6, sequence (Q9NNX6 59-404): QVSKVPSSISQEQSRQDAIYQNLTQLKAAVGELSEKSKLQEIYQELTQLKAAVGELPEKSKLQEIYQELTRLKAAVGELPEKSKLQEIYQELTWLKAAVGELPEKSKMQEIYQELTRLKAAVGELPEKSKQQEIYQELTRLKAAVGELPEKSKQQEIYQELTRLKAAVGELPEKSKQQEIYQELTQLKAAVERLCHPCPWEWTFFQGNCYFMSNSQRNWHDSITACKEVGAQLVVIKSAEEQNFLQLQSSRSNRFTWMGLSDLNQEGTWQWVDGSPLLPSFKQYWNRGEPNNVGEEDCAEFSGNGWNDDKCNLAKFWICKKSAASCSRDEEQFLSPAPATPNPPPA

Substance | IC50 [1] [nM] | % inhibition of Fc-gp120 binding to CEM cells at 10 μg/ml sCD4 [2] [%] | % inhibition of Fc-gp120 binding to CEM cells at 10 μg/ml sCD4 [3] [%] | % inhibition of Fc-gp120 binding to CEM cells at 10 μg/ml sCD4 [4] [%] | % inhibition of Fc-gp120 binding to CEM cells at 10 μg/ml sCD4 [5] [%]
biotinylated Fc-gp120 (Fc fusion) | 0.017 | – | – | – | –
4-domain recombinant soluble CD4 (domain or fragment) | – | 100 | 100 | 50 | 100
